This is an account of results in US20200354462A1.

The assay has as its target human GnRH receptor expressed on the surface of OC-3-VGH cancer cells (human) (UniProt P30968). The assay is described as follows: cell-based or functional assay.
UniProt P30968, sequence (P30968 whole entry): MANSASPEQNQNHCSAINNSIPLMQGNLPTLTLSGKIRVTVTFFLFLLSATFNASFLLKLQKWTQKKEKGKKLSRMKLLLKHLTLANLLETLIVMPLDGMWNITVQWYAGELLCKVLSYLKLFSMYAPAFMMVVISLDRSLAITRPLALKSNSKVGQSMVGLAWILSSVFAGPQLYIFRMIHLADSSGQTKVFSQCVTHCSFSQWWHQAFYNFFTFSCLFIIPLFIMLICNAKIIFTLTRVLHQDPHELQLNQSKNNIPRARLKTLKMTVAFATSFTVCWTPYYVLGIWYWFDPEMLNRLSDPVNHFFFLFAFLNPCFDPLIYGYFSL

antide (peptide): the GnRH gene expression in cancer cells was 50%.
